Data set [1] concerns the molecule itself. In words: gel filtration HPLC and analytical ultracentrifugation (peak II 220±10 kDa, likely trimers). How it is done: (§1) FIG. 11. rGPBP and rGPBPΔ26 form very active high molecular weight aggregates. About 300 μg of rGPBP (A) or rGPBPΔ26 (B) were subjected to gel filtration HPLC as described under Material and Methods. Vertical arrowheads and numbers respectively indicate the elution profile and molecular mass (kDa) of the molecular weight standards used. Larger aggregates eluted in the void volume (I), and the bulk of the material present in the samples eluted in the fractionation range of the column as a second peak between the 669 and 158 kDa markers (II). Fifteen microliters of the indicated minute fractions were subjected to SDS-PAGE and Coomasie blue staining. Five microliters of the same fractions were in vitro phosphorylated as described in Materials and Methods, and the reaction stopped by boiling in SDS sample buffer. […]
(§2) Gel-filtration HPLC. […] The material was eluted from the column at 0.5 ml/min, monitored at 220 nm and minute fractions collected.
(§3) rGPBP and rGPBP-26 exist as very active high molecular weight aggregates. Gel filtration analysis of affinity-purified rGPBP or rGPBPΔ26 yielded two chromatographic peaks (I and II), both displaying higher MW than expected for the individual molecular species, as determined by SDS-PAGE studies (89 kDa and 84 kDa, respectively ) (FIG. 11). […] ATP, and analyzed by immunoblot and autoradiography.
A general note: SEC sorts molecules by how far they enter the pores of the column.

Data set [2] concerns the molecule itself. In words: gel filtration HPLC and analytical ultracentrifugation (main population 310±10 kDa). As for the experimental part:
as §1, §2, §3

The target in data set [3] is T1, GPpep1.
T1 chain: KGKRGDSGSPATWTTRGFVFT

B1: FLAG-tagged recombinant GPBP (rGPBP) (enzyme)
chain: DYKDDDDKMSDNQSWNSSGSEEDPETESGPPVERCGVLSKWTNYIHGWQDRWVVLKNNALSYYKSEDETEYGCRGSICLSKAVITPHDFDECRFDISVNDSVWYLRAQDPDHRQQWIDAIEQHKTESGYGSESSLRRHGSMVSLVSGASGYSATSTSSFKKGHSLREKLAEMETFRDILCRQVDTLQKYFDACADAVSKDELQRDKVVEDDEDDFPTTRSDGDFLHSTNGNKEKLFPHVTPKGINGIDFKGEAITFKATTAGILATLSHCIELMVKREDSWQKRLDKETEKKRRTEEAYKNAMTELKKKSHFGGPDYEEGPNSLINEEEFFDAVEAALDRQDKIEEQSQSEKVRLHWPTSLPSGDAFSSVGTHRFVQKPYSRSSSMSSIDLVSASDDVHRFSSQVEEMVQNHMTYSLQDVGGDANWQLVVEEGEMKVYRREVEENGIVLDPLKATHAVKGVTGHEVCNYFWNVDVRNDWETTIENFHVVETLADNAIIIYQTHKRVWPASQRDVLYLSVIRKIPALTENDPETWIVCNFSVDHDSAPLNNRCVRAKINVAMICQTLVSPPEGNQEISRDNILCKITYVANVNPGGWAPASVLRAVAKREYPKFLKRFTSYVQEKTAGKPILF
modifications: contains phosphoserine, phosphothreonine and phosphotyrosine; positions not given
notes: Expressed in Pichia pastoris (pHIL-FLAG-n4') or in 293 cells (pc-FLAG-n4'); ON-GPBP-54m also encodes an initiation Met and a few residues before the FLAG; also called yeast rGPBP; FLAG-n4'
With B1, the binding result in data set [1] was “binds”.

B2: FLAG-tagged recombinant GPBPΔ26 (rGPBPΔ26) (enzyme)
chain: DYKDDDDKMSDNQSWNSSGSEEDPETESGPPVERCGVLSKWTNYIHGWQDRWVVLKNNALSYYKSEDETEYGCRGSICLSKAVITPHDFDECRFDISVNDSVWYLRAQDPDHRQQWIDAIEQHKTESGYGSESSLRRHGSMVSLVSGASGYSATSTSSFKKGHSLREKLAEMETFRDILCRQVDTLQKYFDACADAVSKDELQRDKVVEDDEDDFPTTRSDGDFLHSTNGNKEKLFPHVTPKGINGIDFKGEAITFKATTAGILATLSHCIELMVKREDSWQKRLDKETEKKRRTEEAYKNAMTELKKKSHFGGPDYEEGPNSLINEEEFFDAVEAALDRQDKIEEQSQSEKVRLHWPTSLPSGDAFSSVGTHRFVQKVEEMVQNHMTYSLQDVGGDANWQLVVEEGEMKVYRREVEENGIVLDPLKATHAVKGVTGHEVCNYFWNVDVRNDWETTIENFHVVETLADNAIIIYQTHKRVWPASQRDVLYLSVIRKIPALTENDPETWIVCNFSVDHDSAPLNNRCVRAKINVAMICQTLVSPPEGNQEISRDNILCKITYVANVNPGGWAPASVLRAVAKREYPKFLKRFTSYVQEKTAGKPILF
notes: From pHIL-FLAG-n4'Δ26 in Pichia pastoris, made by deleting the 78-bp exon from pHIL-FLAG-n4'
For the protein B2, the binding result in data set [2] was “binds”. In data set [3], the “trans-phosphorylation activity with GPpep1” value is “the reduced in-solution auto- and trans-phosphorylation activities displayed by rGPBPΔ26”.

For the origin of these results see US20030054488A1 (published 2003).
